# Non-standard residues stand in square brackets, D forms with d. No end group written: not given here. *: point of attachment. Dmt = Cc1cc(O)cc(C)c1C[C@H](N)C(=O)O; Tic = O=C(O)[C@@H]1Cc2ccccc2CN1; NHBn = c1ccc(CN*)cc1
# Key:
# delta2 opioid receptor = assay: cell-based or functional assay
# mu opioid receptor = assay: cell-based or functional assay
# Sequence of mu opioid receptor (P35372 whole entry): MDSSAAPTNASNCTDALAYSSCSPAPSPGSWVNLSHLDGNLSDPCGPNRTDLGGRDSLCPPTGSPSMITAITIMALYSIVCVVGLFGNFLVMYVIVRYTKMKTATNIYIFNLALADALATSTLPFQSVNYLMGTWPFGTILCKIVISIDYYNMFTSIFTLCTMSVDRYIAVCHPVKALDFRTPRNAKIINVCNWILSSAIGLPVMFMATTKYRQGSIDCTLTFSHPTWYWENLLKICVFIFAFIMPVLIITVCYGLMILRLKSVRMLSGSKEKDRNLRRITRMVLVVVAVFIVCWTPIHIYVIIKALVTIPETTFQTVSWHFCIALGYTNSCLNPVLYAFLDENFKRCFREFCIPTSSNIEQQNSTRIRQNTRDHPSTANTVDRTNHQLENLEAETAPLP
Binder,DOP antagonist IC50 (delta2 opioid receptor) [nM],MOP agonist EC50 (mu opioid receptor) [nM]
H-[Dmt][Tic]FK(1'‑octyl β‑D‑glucuronyl)-NH2 [EU-A180],< 0.1,36
H-[Dmt][Tic]FK(1'‑methyl β‑D‑glucuronyl)-NH2 [EU-A178],< 0.1,
[Dmt][Tic]F[dK](1‑methyl β‑D‑glucuronyl)-NHBn [EU-A639],< 0.1,280
[Dmt][Tic]FK(1‑methyl β‑D‑glucuronyl)-NHBn [EU-A620],< 0.1,480
